Assay results reported in patent US20250340654A1.

Target: Canine IL-31RA ECD-10His (canine)
Experiment: ELISA, IL-31RA coated at 1 ug/mL, biotinylated IL-31 titrated, HRP-streptavidin

Canine IL-31RA ECD-10His (canine), sequence (chain, as listed by the source limits assumed): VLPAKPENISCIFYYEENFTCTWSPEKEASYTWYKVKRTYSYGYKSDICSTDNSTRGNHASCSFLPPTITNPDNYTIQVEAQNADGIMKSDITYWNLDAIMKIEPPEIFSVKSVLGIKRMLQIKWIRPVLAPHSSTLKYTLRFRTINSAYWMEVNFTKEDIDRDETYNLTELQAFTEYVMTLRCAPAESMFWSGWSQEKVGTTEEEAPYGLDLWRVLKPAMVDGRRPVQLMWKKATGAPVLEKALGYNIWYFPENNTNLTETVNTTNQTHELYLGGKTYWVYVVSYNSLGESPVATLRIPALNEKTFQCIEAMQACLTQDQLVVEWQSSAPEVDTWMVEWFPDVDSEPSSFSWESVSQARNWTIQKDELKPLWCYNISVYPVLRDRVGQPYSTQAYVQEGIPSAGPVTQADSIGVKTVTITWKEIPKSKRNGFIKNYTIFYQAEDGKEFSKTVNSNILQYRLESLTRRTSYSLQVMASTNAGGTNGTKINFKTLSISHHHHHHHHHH

biotinylated canine IL-31 (ligand)
EC50: 0.55 ng/mL
